Test results: patent US20250092135A1 (NANJING LEADS BIOLABS, published 2025)

Tests used:
Human MUC16-His = target: T1, Human MUC16-His (human); experiment: BLI (ForteBio Octet RED96), antibody on AHC sensor, 50 nM antigen, 1:1 model
T1 construct: The entry includes the C-terminal 6xHis tag; also called membrane-proximal end of the extracellular region of the human MUC16 protein; Human MUC16 protein
T1 chain: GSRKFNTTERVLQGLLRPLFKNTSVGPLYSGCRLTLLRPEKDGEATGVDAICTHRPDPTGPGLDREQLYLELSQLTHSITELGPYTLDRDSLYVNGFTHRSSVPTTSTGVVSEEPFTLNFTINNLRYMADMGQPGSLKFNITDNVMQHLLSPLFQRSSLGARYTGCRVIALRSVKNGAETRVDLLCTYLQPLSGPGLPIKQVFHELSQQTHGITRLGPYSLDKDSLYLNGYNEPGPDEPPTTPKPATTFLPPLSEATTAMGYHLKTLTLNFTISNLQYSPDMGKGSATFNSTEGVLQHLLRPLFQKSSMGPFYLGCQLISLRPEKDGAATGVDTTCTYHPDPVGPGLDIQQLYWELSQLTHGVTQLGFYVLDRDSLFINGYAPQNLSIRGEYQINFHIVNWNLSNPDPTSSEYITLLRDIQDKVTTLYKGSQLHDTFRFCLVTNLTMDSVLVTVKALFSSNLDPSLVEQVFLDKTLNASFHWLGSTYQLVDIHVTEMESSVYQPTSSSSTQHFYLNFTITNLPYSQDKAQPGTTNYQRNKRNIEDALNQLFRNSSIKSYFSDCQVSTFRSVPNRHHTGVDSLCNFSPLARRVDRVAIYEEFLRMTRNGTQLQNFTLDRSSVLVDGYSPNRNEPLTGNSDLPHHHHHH
Description: (§1) The binding affinity of the anti-MUC-16 antibodies for the membrane-proximal end of the extracellular region of the human MUC16 protein (human MUC16-His, Table 26) and the membrane-proximal end of the extracellular region of the rhesus monkey MUC16 protein (rhesus monkey MUC16-His, Table 26) was detected by ForteBio Octet RED96, respectively. According to the manufacturer's instructions, an AHC sensor (ForteBio, Cat #18-5060) was placed in a running buffer (lx PBS, Hyclone, Cat #SH30256.01, containing 0.02% Tween 20, pH 7.0) and pre-equilibrated at room temperature for 10 min. In a 96-well plate, the kinetic assay was performed according to the following steps: a) equilibrating the baseline for 100 s with the running buffer; b) diluting the anti-MUC-16 antibodies with the running buffer to 5 μg/mL, immobilizing for 200 s, and stopping; c) equilibrating the baseline for 300 s with the running buffer; and d) diluting the human or rhesus monkey MUC16 protein with the running buffer to 50 nM, binding for 200 s, and dissociating for 600 s. The experimental data were fitted and calculated using a Fortebio Data Analysis software 1:1 binding model.

Rhesus monkey MUC16-His = target: T2, Rhesus monkey MUC16-His (rhesus monkey); experiment: as above
T2 construct: The entry includes the C-terminal 6xHis tag; also called membrane-proximal end of the extracellular region of the rhesus monkey MUC16 protein
T2 chain: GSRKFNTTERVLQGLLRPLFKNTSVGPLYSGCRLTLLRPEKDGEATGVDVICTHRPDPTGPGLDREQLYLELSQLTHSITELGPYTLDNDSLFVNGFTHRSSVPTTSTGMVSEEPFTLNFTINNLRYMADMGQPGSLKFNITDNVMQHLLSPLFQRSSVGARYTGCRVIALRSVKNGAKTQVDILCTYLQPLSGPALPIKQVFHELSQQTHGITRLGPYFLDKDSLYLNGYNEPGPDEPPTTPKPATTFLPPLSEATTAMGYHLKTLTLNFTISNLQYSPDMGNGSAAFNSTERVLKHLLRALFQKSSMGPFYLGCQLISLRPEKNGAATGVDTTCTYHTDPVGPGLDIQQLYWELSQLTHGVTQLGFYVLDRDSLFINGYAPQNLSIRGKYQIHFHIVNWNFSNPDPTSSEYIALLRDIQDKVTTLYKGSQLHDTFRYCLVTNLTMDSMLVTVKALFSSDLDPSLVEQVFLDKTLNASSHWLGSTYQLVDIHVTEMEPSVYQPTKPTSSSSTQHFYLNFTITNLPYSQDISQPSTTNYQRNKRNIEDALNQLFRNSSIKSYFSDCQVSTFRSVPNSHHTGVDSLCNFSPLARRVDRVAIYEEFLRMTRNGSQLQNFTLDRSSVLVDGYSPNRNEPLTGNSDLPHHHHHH
Description: as §1

[1] = target: T3, rhesus monkey MUC16 protein (ECT_TM RhMuc16) on 293T cells (rhesus monkey); experiment: flow cytometry, 293T/rhesus MUC16 cells, PE anti-human IgG Fc secondary, MFI; EC50 table under the plot, unit from the axis Conc.(nM)
T3 chain: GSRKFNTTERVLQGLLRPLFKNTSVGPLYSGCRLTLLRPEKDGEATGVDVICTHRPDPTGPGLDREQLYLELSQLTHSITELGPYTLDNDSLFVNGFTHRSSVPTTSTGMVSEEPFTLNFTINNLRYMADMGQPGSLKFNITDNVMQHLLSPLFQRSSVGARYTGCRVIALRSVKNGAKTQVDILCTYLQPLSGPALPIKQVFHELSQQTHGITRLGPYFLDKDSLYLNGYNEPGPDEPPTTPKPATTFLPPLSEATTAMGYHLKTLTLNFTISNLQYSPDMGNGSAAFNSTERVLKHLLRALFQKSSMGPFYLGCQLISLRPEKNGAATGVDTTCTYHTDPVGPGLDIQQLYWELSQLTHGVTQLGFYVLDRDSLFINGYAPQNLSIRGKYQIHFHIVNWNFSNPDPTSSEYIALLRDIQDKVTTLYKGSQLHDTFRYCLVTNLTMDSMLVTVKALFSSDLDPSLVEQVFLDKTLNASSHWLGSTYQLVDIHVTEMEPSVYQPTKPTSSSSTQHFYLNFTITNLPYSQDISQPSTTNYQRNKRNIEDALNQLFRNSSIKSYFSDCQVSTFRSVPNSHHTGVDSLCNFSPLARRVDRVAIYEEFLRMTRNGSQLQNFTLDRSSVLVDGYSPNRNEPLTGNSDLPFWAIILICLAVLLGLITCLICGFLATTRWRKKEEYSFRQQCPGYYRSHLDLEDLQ
Method: The serially diluted anti-human MUC16 antibodies (at an initial concentration of 200 nM, 4-fold dilution, 8 points in total) obtained in the present application were added to the cells, and the cells were incubated at 4° C. for 30 min. The cells were washed twice with PBS, and then fluorescent secondary antibody R-PE-conjugated AffiniPure Goat Anti-Human IgG, Fcγ Fragment Specific (Jackson ImmunoResearch, Cat #109-116-098) was added. The cells were incubated at 4° C. for 30 min. The cells were washed twice with PBS and then resuspended, and finally, fluorescence signals were detected using a BD Accuri C5 (BD Bioscience) flow cytometer.

- Kd (Human MUC16-His): 0.921 nM
- koff (Human MUC16-His): 0.000245 s⁻¹
- kon (Human MUC16-His): 266000 M⁻¹ s⁻¹
- Kd (Rhesus monkey MUC16-His): 1.03 nM
- koff (Rhesus monkey MUC16-His): 0.000826 s⁻¹
- kon (Rhesus monkey MUC16-His): 803000 M⁻¹ s⁻¹
- EC50 [1]: 5.01 nM
B1: anti-MUC16 antibody 776.1(C33S) (antibody, human IgG1, kappa, L234A L235A, V domains shown)
VH: EVQLQQSGPELVKPGASVKISCKASGYTFTDYNIHWVKQSHGKILEWIGYIYPYNGVSDYNQNFKSKATLIVDNSSNTAYMELRSLTSEDSAVYYCARWDFGSGYYFDYWGQGTTLTVSS
VL: QIVLSQSPAILFASPGETVTMTCRASSSVIYMSWNQQKPGSSPKPWIYGTSTLASGVPTRFSGSGSGTSYSLTISRVEAEDAATYYCQQWSSNPFTFGSGTKLEIKR
